# Test results as given in patent publication US20160272693A1 (ZEALAND PHARMA A S, published 2016).
# *1 amine or outer side, *2 acyl side, *3 side chain or, on linkers, in order; H or OH if unused. Bridges are numbered along the chain shown (N, C = ends). [ ]: non-standard residue; d: D form. The star is where a group is joined. C20 diacid = O=C(O)CCCCCCCCCCCCCCCCCCC(=O)*; γGlu = O=C(O)[C@H](CCC(=O)[*:2])N[*:1]; Hyp = O=C(O)[C@@H]1C[C@@H](O)CN1; NMeI = CC[C@H](C)[C@H](NC)C(=O)O; Sar = CNCC(=O)O
# Molecular target: T1, human amylin receptor 3 (hAMYR3), hCTR2 co-expressed with human receptor activity modifying protein 3 (hRAMP3) (human, UniProt P30988 25-474; O60896 24-148)
# T1 sequence (looked up) 1: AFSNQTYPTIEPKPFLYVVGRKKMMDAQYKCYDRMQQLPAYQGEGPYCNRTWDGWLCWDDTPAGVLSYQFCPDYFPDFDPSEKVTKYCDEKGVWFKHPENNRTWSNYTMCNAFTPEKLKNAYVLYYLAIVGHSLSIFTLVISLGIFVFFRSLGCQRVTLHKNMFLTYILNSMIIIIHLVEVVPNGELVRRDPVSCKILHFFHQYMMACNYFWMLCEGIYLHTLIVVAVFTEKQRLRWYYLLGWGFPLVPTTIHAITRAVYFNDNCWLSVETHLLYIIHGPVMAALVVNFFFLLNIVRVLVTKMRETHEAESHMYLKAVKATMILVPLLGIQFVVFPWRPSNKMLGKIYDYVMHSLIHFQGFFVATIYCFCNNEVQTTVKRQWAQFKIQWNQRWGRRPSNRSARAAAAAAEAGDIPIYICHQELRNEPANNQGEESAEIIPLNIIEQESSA
# T1 sequence (looked up) 2: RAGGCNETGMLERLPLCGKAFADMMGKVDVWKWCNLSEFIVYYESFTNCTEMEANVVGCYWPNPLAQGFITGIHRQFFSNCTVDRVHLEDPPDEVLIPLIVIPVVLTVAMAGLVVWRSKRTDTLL
# Assay: cell-based or functional assay
binder,measurement,value
{C20 diacid-γGlu}-RCGTATCATERLAHFLVRSSF[Sar]A[NMeI]LSSTEVGSSTP-NH2 (disulfide 2-7; SMILES CC[C@H](C)[C@@H](C(=O)N[C@@H](CC(C)C)C(=O)N[C@@H](CO)C(=O)N[C@@H](CO)C(=O)N[C@H](C(=O)N[C@@H](CCC(=O)O)C(=O)N[C@H](C(=O)NCC(=O)N[C@@H](CO)C(=O)N[C@@H](CO)C(=O)N[C@H](C(=O)N1CCC[C@H]1C(N)=O)[C@@H](C)O)C(C)C)[C@@H](C)O)N(C)C(=O)[C@H](C)NC(=O)CN(C)C(=O)[C@H](Cc1ccccc1)NC(=O)[C@H](CO)NC(=O)[C@H](CO)NC(=O)[C@H](CCCNC(=N)N)NC(=O)[C@@H](NC(=O)[C@H](CC(C)C)NC(=O)[C@H](Cc1ccccc1)NC(=O)[C@H](Cc1c[nH]cn1)NC(=O)[C@H](C)NC(=O)[C@H](CC(C)C)NC(=O)[C@H](CCCNC(=N)N)NC(=O)[C@H](CCC(=O)O)NC(=O)[C@@H](NC(=O)[C@H](C)NC(=O)[C@@H]1CSSC[C@H](NC(=O)[C@H](CCCNC(=N)N)NC(=O)CC[C@H](NC(=O)CCCCCCCCCCCCCCCCCCC(=O)O)C(=O)O)C(=O)NCC(=O)N[C@@H]([C@@H](C)O)C(=O)N[C@@H](C)C(=O)N[C@@H]([C@@H](C)O)C(=O)N1)[C@@H](C)O)C(C)C) [[19CD]-isoGlu-R-C( )-GTAT-C( )-ATERLAHFLVRSSF-Gly(Me)-A-Ile(Me)-LSSTEVGSSTP-NH2 (Compd. 38)],hAMYR3 EC50 (nM); cAMP induction,0.12 nM
{C20 diacid}-[γGlu]RCGTATCATERLAHFLHRSSF[Sar]A[NMeI]LSSTEVGSSTP-NH2 (disulfide 3-8; SMILES CC[C@H](C)[C@@H](C(=O)N[C@@H](CC(C)C)C(=O)N[C@@H](CO)C(=O)N[C@@H](CO)C(=O)N[C@H](C(=O)N[C@@H](CCC(=O)O)C(=O)N[C@H](C(=O)NCC(=O)N[C@@H](CO)C(=O)N[C@@H](CO)C(=O)N[C@H](C(=O)N1CCC[C@H]1C(N)=O)[C@@H](C)O)C(C)C)[C@@H](C)O)N(C)C(=O)[C@H](C)NC(=O)CN(C)C(=O)[C@H](Cc1ccccc1)NC(=O)[C@H](CO)NC(=O)[C@H](CO)NC(=O)[C@H](CCCNC(=N)N)NC(=O)[C@H](Cc1c[nH]cn1)NC(=O)[C@H](CC(C)C)NC(=O)[C@H](Cc1ccccc1)NC(=O)[C@H](Cc1c[nH]cn1)NC(=O)[C@H](C)NC(=O)[C@H](CC(C)C)NC(=O)[C@H](CCCNC(=N)N)NC(=O)[C@H](CCC(=O)O)NC(=O)[C@@H](NC(=O)[C@H](C)NC(=O)[C@@H]1CSSC[C@H](NC(=O)[C@H](CCCNC(=N)N)NC(=O)CC[C@H](NC(=O)CCCCCCCCCCCCCCCCCCC(=O)O)C(=O)O)C(=O)NCC(=O)N[C@@H]([C@@H](C)O)C(=O)N[C@@H](C)C(=O)N[C@@H]([C@@H](C)O)C(=O)N1)[C@@H](C)O) [[19CD]-isoGlu-R-C( )-GTAT-C( )-ATERLAHFLHRSSF-Gly(Me)-A-Ile(Me)-LSSTEVGSSTP-NH2 (Compd. 37)],hAMYR3 EC50 (nM); cAMP induction,0.07 nM
{C20 diacid}-[γGlu]RCGTATCATERLAHFLQRSSF[Sar]A[NMeI]LSSTEVGSFTP-NH2 (disulfide 3-8; SMILES CC[C@H](C)[C@@H](C(=O)N[C@@H](CC(C)C)C(=O)N[C@@H](CO)C(=O)N[C@@H](CO)C(=O)N[C@H](C(=O)N[C@@H](CCC(=O)O)C(=O)N[C@H](C(=O)NCC(=O)N[C@@H](CO)C(=O)N[C@@H](Cc1ccccc1)C(=O)N[C@H](C(=O)N1CCC[C@H]1C(N)=O)[C@@H](C)O)C(C)C)[C@@H](C)O)N(C)C(=O)[C@H](C)NC(=O)CN(C)C(=O)[C@H](Cc1ccccc1)NC(=O)[C@H](CO)NC(=O)[C@H](CO)NC(=O)[C@H](CCCNC(=N)N)NC(=O)[C@H](CCC(N)=O)NC(=O)[C@H](CC(C)C)NC(=O)[C@H](Cc1ccccc1)NC(=O)[C@H](Cc1c[nH]cn1)NC(=O)[C@H](C)NC(=O)[C@H](CC(C)C)NC(=O)[C@H](CCCNC(=N)N)NC(=O)[C@H](CCC(=O)O)NC(=O)[C@@H](NC(=O)[C@H](C)NC(=O)[C@@H]1CSSC[C@H](NC(=O)[C@H](CCCNC(=N)N)NC(=O)CC[C@H](NC(=O)CCCCCCCCCCCCCCCCCCC(=O)O)C(=O)O)C(=O)NCC(=O)N[C@@H]([C@@H](C)O)C(=O)N[C@@H](C)C(=O)N[C@@H]([C@@H](C)O)C(=O)N1)[C@@H](C)O) [[19CD]-isoGlu-R-C( )-GTAT-C( )-ATERLAHFLQRSSF-Gly(Me)-A-Ile(Me)-LSSTEVGSFTP-NH2 (Compd. 39)],hAMYR3 EC50 (nM); cAMP induction,0.22 nM
{C20 diacid}-[γGlu]RCGTATCATERLADFLTRSSF[Sar]A[NMeI]LSSTEVGSST[Hyp]-NH2 (disulfide 3-8; SMILES CC[C@H](C)[C@@H](C(=O)N[C@@H](CC(C)C)C(=O)N[C@@H](CO)C(=O)N[C@@H](CO)C(=O)N[C@H](C(=O)N[C@@H](CCC(=O)O)C(=O)N[C@H](C(=O)NCC(=O)N[C@@H](CO)C(=O)N[C@@H](CO)C(=O)N[C@H](C(=O)N1C[C@H](O)C[C@H]1C(N)=O)[C@@H](C)O)C(C)C)[C@@H](C)O)N(C)C(=O)[C@H](C)NC(=O)CN(C)C(=O)[C@H](Cc1ccccc1)NC(=O)[C@H](CO)NC(=O)[C@H](CO)NC(=O)[C@H](CCCNC(=N)N)NC(=O)[C@@H](NC(=O)[C@H](CC(C)C)NC(=O)[C@H](Cc1ccccc1)NC(=O)[C@H](CC(=O)O)NC(=O)[C@H](C)NC(=O)[C@H](CC(C)C)NC(=O)[C@H](CCCNC(=N)N)NC(=O)[C@H](CCC(=O)O)NC(=O)[C@@H](NC(=O)[C@H](C)NC(=O)[C@@H]1CSSC[C@H](NC(=O)[C@H](CCCNC(=N)N)NC(=O)CC[C@H](NC(=O)CCCCCCCCCCCCCCCCCCC(=O)O)C(=O)O)C(=O)NCC(=O)N[C@@H]([C@@H](C)O)C(=O)N[C@@H](C)C(=O)N[C@@H]([C@@H](C)O)C(=O)N1)[C@@H](C)O)[C@@H](C)O) [[19CD]-isoGlu-R-C( )-GTAT-C( )-ATERLADFLTRSSF-Gly(Me)-A-Ile(Me)-LSSTEVGSST-Hyp-NH2 (Compd. 41)],hAMYR3 EC50 (nM); cAMP induction,0.34 nM
{C20 diacid}-[γGlu]RCGTATCATERLAHFLNRSSF[Sar]A[NMeI]LSSTEVGSFTP-NH2 (disulfide 3-8; SMILES CC[C@H](C)[C@@H](C(=O)N[C@@H](CC(C)C)C(=O)N[C@@H](CO)C(=O)N[C@@H](CO)C(=O)N[C@H](C(=O)N[C@@H](CCC(=O)O)C(=O)N[C@H](C(=O)NCC(=O)N[C@@H](CO)C(=O)N[C@@H](Cc1ccccc1)C(=O)N[C@H](C(=O)N1CCC[C@H]1C(N)=O)[C@@H](C)O)C(C)C)[C@@H](C)O)N(C)C(=O)[C@H](C)NC(=O)CN(C)C(=O)[C@H](Cc1ccccc1)NC(=O)[C@H](CO)NC(=O)[C@H](CO)NC(=O)[C@H](CCCNC(=N)N)NC(=O)[C@H](CC(N)=O)NC(=O)[C@H](CC(C)C)NC(=O)[C@H](Cc1ccccc1)NC(=O)[C@H](Cc1c[nH]cn1)NC(=O)[C@H](C)NC(=O)[C@H](CC(C)C)NC(=O)[C@H](CCCNC(=N)N)NC(=O)[C@H](CCC(=O)O)NC(=O)[C@@H](NC(=O)[C@H](C)NC(=O)[C@@H]1CSSC[C@H](NC(=O)[C@H](CCCNC(=N)N)NC(=O)CC[C@H](NC(=O)CCCCCCCCCCCCCCCCCCC(=O)O)C(=O)O)C(=O)NCC(=O)N[C@@H]([C@@H](C)O)C(=O)N[C@@H](C)C(=O)N[C@@H]([C@@H](C)O)C(=O)N1)[C@@H](C)O) [[19CD]-isoGlu-R-C( )-GTAT-C( )-ATERLAHFLNRSSF-Gly(Me)-A-Ile(Me)-LSSTEVGSFTP-NH2 (Compd. 40)],hAMYR3 EC50 (nM); cAMP induction,0.19 nM
